This passage reports Kd, koff and kon results from patent US20180334496A1 (KODIAK SCIENCES, published 2018).

Sequences and labels used below:
B1: 28H31S54V59D / 101V (antibody, V domains shown)
VH: EVQLVESGGGLVQPGGSLRLSCAASGYHFTSYYMNWVRQAPGKGLEWIGDINPVTGDTDYNADFKRRFTFSLDTSKSTAYLQMNSLRAEDTAVYYCTREGPSFAYWGQGTLVTVSS
VL: DIQLTQSPSSLSASVGDRVTITCRSSQTIVHSNGDTYLEWYQQKPGKAPNLLIYKVSNRFSGVPSRFSGSGSGTDFTLTISSLQPEDFATYYCFQGSHVPVTFGQGTKVEIK
notes: KCD119 TAF variant; full antibody captured on protein A
B2: 54I59D / 32W54S60W101V (antibody, V domains shown)
VH: B1 VH with H28T, S31D, V54I
VL: B1 VL with S32W, Y54S, F60W
notes: Light label printed 32W54560W101V, read as 32W54S60W101V; also called 54I59D / 32W54560W101V
B3: 31S54I59D / 32W60W101V (antibody, V domains shown)
VH: B1 VH with H28T, V54I
VL: B1 VL with S32W, F60W
notes: as for B1
B4: 31S34I54I59D / 32W60W101V (antibody, V domains shown)
VH: B1 VH with H28T, M34I, V54I
VL: B1 VL with S32W, F60W
notes: as for B1
B5: 28Q31S54V59D / 101V (antibody, V domains shown)
VH: B1 VH with H28Q
VL: B1 VL
notes: as for B1
B6: 54I59D / 32W60W101V (antibody, V domains shown)
VH: B1 VH with H28T, S31D, V54I
VL: B1 VL with S32W, F60W
notes: as for B1
B7: 28S31S54V59D / 101V (antibody, V domains shown)
VH: B1 VH with H28S
VL: B1 VL
notes: as for B1
B8: 31S54I59D84S / 32W60W101V (antibody, V domains shown)
VH: B1 VH with H28T, V54I, N84S
VL: B1 VL with S32W, F60W
notes: Label printed 31S54I59D845, read as 84S; full antibody captured on protein A; also called 31S54I59D845 / 32W60W101V
B9: 54V59D / 101V (antibody, V domains shown)
VH: B1 VH with H28T, S31D
VL: B1 VL
notes: as for B1
B10: 28I31S54V59D / 101V (antibody, V domains shown)
VH: B1 VH with H28I
VL: B1 VL
notes: as for B1
B11: 31S54I59D / 54G101V (antibody, V domains shown)
VH: B1 VH with H28T, V54I
VL: B1 VL with Y54G
notes: as for B1
B12: 28V31S54V59D / 101V (antibody, V domains shown)
VH: B1 VH with H28V
VL: B1 VL
notes: as for B1
B13: 54I59D / 50I60W101V (antibody, V domains shown)
VH: B1 VH with H28T, S31D, V54I
VL: B1 VL with N50I, F60W
notes: as for B1
B14: 54I59D / 32W33G60W101V (antibody, V domains shown)
VH: B1 VH with H28T, S31D, V54I
VL: B1 VL with S32W, N33G, F60W
notes: KCD119 TAF variant; same label printed in three rows
B15: 54V59D / 32W60W101V (antibody, V domains shown)
VH: B1 VH with H28T, S31D
VL: B1 VL with S32W, F60W
notes: as for B1
B16: 31S54I59D84T / 32W60W101V (antibody, V domains shown)
VH: B1 VH with H28T, V54I, N84T
VL: B1 VL with S32W, F60W
notes: as for B1
B17: 54I59D84T / 32W60W101V (antibody, V domains shown)
VH: B1 VH with H28T, S31D, V54I, N84T
VL: B1 VL with S32W, F60W
notes: as for B1
B18: 31S48V54V59D / 101V (antibody, V domains shown)
VH: B1 VH with H28T, I48V
VL: B1 VL
notes: as for B1
B19: 48V54V59D / 32W60W101V (antibody, V domains shown)
VH: B1 VH with H28T, S31D, I48V
VL: B1 VL with S32W, F60W
notes: as for B1
B20: 31S54V59D / 32W60W101V (antibody, V domains shown)
VH: B1 VH with H28T
VL: B1 VL with S32W, F60W
notes: as for B1
B21: 31S54V59D / 101V (antibody, V domains shown)
VH: B1 VH with H28T
VL: B1 VL
notes: as for B1
B22: 34I54I59D / 32W60W101V (antibody, V domains shown)
VH: B1 VH with H28T, S31D, M34I, V54I
VL: B1 VL with S32W, F60W
notes: as for B1
B23: 31S54I59D / 50I60W101V (antibody, V domains shown)
VH: B1 VH with H28T, V54I
VL: B1 VL with N50I, F60W
notes: as for B1
B24: 28K31S54V59D / 101V (antibody, V domains shown)
VH: B1 VH with H28K
VL: B1 VL
notes: as for B1
B25: 54I59D / 32W54S101V (antibody, V domains shown)
VH: B1 VH with H28T, S31D, V54I
VL: B1 VL with S32W, Y54S
notes: Light label printed 32W545101V, read as 32W54S101V; also called 54I59D / 32W545101V

Residue numbers refer to the chain shown, from its start. Values joined by “and” are separate entries in the source; they are usually repeats but may differ in a detail not shown here. Equal entries are not always repeated.

What is called Kd is the concentration at which binding is half-saturated. Read a low Kd as higher affinity. The term koff denotes the first-order rate constant of dissociation. A higher koff goes with a short-lived complex. One may read the kon as the second-order rate constant of association.

For the first assay, the target named is T1, serum purified human Complement Factor D (human, UniProt P00746 26-253).
T1 construct: Serum purified protein flowed over the captured antibodies; also called CFD; human CFD
T1 sequence (P00746 26-253): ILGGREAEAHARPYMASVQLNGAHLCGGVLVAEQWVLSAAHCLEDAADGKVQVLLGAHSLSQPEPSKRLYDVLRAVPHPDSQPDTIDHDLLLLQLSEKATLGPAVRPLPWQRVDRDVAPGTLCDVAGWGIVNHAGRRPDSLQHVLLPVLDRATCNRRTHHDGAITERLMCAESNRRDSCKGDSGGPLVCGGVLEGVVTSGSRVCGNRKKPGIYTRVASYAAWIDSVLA
Put plainly: SPR Biacore, antibody on protein A chip, single cycle kinetics, 25 C.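 Also: antibodies captured to roughly 70 RU on the protein A surface in HBS-EP+ running buffer, with kinetic constants derived by BIAevaluation fitting.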 In general terms: SPR reads the build-up and loss of mass on a sensor chip optically.
Experimental: (§1) Antibodies were diluted to 0.5 ug/ml in HBS-EP+ buffer and captured on a protein A chip for 25 seconds to reach approximately 70 resonance units. […] Binding kinetic information was obtained by the BIAevaluation software (GE).
With B1, the dissociation constant Kd turned out to be 0.0251 nM, the koff was found to be 0.000167 s⁻¹ and the kon came to 6.65e+06 M⁻¹ s⁻¹.

B2 returned an equilibrium dissociation constant (Kd) of 0.00858 nM, an off-rate (koff) of 5.37e-05 s⁻¹ and a kon of 6.25e+06 M⁻¹ s⁻¹.

Consider B3, for which binding was put at a Kd of 0.0165 nM, the off-rate (koff) is 6.3e-05 s⁻¹ and the association rate constant (kon) was 3.83e+06 M⁻¹ s⁻¹.

The molecule B4 displayed a dissociation constant (Kd) of 0.0172 nM, a koff of 5.69e-05 s⁻¹ and a kon of 3.31e+06 M⁻¹ s⁻¹.

In turn, B5 registered a dissociation constant (Kd) of 0.023 nM, a koff of 0.000164 s⁻¹ and an on-rate constant (kon) of 7.15e+06 M⁻¹ s⁻¹.

For the molecule B6, the dissociation rate constant (koff) was 3.5e-05 s⁻¹ and 8.32e-05 s⁻¹ and 6.85e-05 s⁻¹; the kon is 7.57e+06 M⁻¹ s⁻¹ and 4.91e+06 M⁻¹ s⁻¹ and 5.83e+06 M⁻¹ s⁻¹.

Consider B7, for which the Kd stood at 0.0217 nM, the koff came to 0.000166 s⁻¹ and the on-rate (kon) is 7.64e+06 M⁻¹ s⁻¹.

Molecule B8 showed a Kd of 0.0203 nM, a koff of 7.76e-05 s⁻¹ and a kon of 3.83e+06 M⁻¹ s⁻¹.

In the case of B9, the affinity, expressed as Kd, was 0.0371 nM; the koff was determined as 0.000258 s⁻¹; the on-rate constant (kon) amounted to 6.94e+06 M⁻¹ s⁻¹.

In turn, B10 showed a Kd of 0.0177 nM, an off-rate (koff) of 0.000134 s⁻¹ and a kon of 7.59e+06 M⁻¹ s⁻¹.

On to B11, for which the Kd stood at 0.00689 nM, the koff came out at 8.25e-05 s⁻¹ and the on-rate constant (kon) was 1.2e+07 M⁻¹ s⁻¹.

B12: the equilibrium dissociation constant (Kd) was 0.00601 nM, the koff came to 4.76e-05 s⁻¹ and the kon stood at 7.91e+06 M⁻¹ s⁻¹.

The molecule B13 yielded an equilibrium dissociation constant (Kd) of 0.0121 nM, an off-rate (koff) of 6.67e-05 s⁻¹ and a kon of 5.53e+06 M⁻¹ s⁻¹.

As to B14, the equilibrium dissociation constant (Kd) is 0.0514 nM and 0.0534 nM and 0.0778 nM; the koff is 0.0004 s⁻¹ and 0.000328 s⁻¹ and 0.000352 s⁻¹; the kon was 7.78e+06 M⁻¹ s⁻¹ and 6.14e+06 M⁻¹ s⁻¹ and 4.53e+06 M⁻¹ s⁻¹.

As to B15, binding was characterised by a dissociation constant (Kd) of 0.00607 nM, the off-rate (koff) came out at 4.79e-05 s⁻¹ and the kon turned out to be 7.88e+06 M⁻¹ s⁻¹.

In turn, B16 gave a dissociation constant (Kd) of 0.0157 nM, a koff of 6.01e-05 s⁻¹ and a kon of 3.83e+06 M⁻¹ s⁻¹.

Molecule B17 gave a Kd of 0.0169 nM, an off-rate (koff) of 8.43e-05 s⁻¹ and an on-rate constant (kon) of 4.99e+06 M⁻¹ s⁻¹.

In turn, B18 returned a Kd of 0.0169 nM, an off-rate (koff) of 0.000101 s⁻¹ and an on-rate constant (kon) of 5.98e+06 M⁻¹ s⁻¹.

B19 gave a Kd of 0.0159 nM, a koff of 9.5e-05 s⁻¹ and an association rate constant (kon) of 5.96e+06 M⁻¹ s⁻¹.

B20 displayed a Kd of 0.0158 nM, an off-rate (koff) of 8.84e-05 s⁻¹ and an on-rate constant (kon) of 5.58e+06 M⁻¹ s⁻¹.

Consider B21, for which the Kd is 0.0188 nM and 0.0176 nM; the koff was 0.000131 s⁻¹ and 0.000101 s⁻¹; the on-rate constant (kon) is 6.95e+06 M⁻¹ s⁻¹ and 5.71e+06 M⁻¹ s⁻¹.

B22: the Kd stood at 0.0211 nM, the dissociation rate constant (koff) amounted to 0.000136 s⁻¹ and the on-rate (kon) was found to be 6.45e+06 M⁻¹ s⁻¹.

The molecule B23 displayed a Kd of 0.00774 nM, a dissociation rate constant (koff) of 3.98e-05 s⁻¹ and a kon of 5.14e+06 M⁻¹ s⁻¹.

B24 displayed a Kd of 0.0224 nM, an off-rate constant (koff) of 0.000163 s⁻¹ and an on-rate (kon) of 7.3e+06 M⁻¹ s⁻¹.

For the molecule B25, binding was put at a Kd of 0.00948 nM, the off-rate (koff) was 7.29e-05 s⁻¹ and the kon is 7.69e+06 M⁻¹ s⁻¹.

A further assay addresses T1, serum purified human Complement Factor D. Put plainly: SPR Biacore, antibody on protein A chip, single cycle kinetics, 37 C.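 Also: antibodies captured on the protein A surface to roughly 70 RU in HBS-EP+ buffer, with rate and affinity constants fitted using BIAevaluation software.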
Experimental: as §1
As for B1, the affinity, expressed as Kd, was 0.0257 nM; the dissociation rate constant (koff) amounted to 0.000443 s⁻¹; the association rate constant (kon) came out at 1.72e+07 M⁻¹ s⁻¹.

As to B2, the affinity, expressed as Kd, was 0.0124 nM; the koff was found to be 0.000136 s⁻¹; the association rate constant (kon) was 1.1e+07 M⁻¹ s⁻¹.

Regarding B3, the Kd came out at 0.0343 nM, the koff stood at 0.000225 s⁻¹ and the kon amounted to 6.55e+06 M⁻¹ s⁻¹.

The molecule B4 registered a Kd of 0.0312 nM, a koff of 0.000208 s⁻¹ and a kon of 6.67e+06 M⁻¹ s⁻¹.

The molecule B5 came in with a dissociation constant Kd of 0.0757 nM, a koff of 0.00103 s⁻¹ and an association rate constant (kon) of 1.35e+07 M⁻¹ s⁻¹.

For B6, the dissociation constant Kd was 0.0131 nM and 0.00972 nM and 0.00501 nM; the association rate constant (kon) was 1.5e+07 M⁻¹ s⁻¹ and 6.86e+06 M⁻¹ s⁻¹ and 1.17e+07 M⁻¹ s⁻¹.

Molecule B7 registered a dissociation constant Kd of 0.0727 nM, a koff of 0.000918 s⁻¹ and an association rate constant (kon) of 1.26e+07 M⁻¹ s⁻¹.

B8 yielded a Kd of 0.0235 nM, a koff of 0.000209 s⁻¹ and an on-rate constant (kon) of 8.9e+06 M⁻¹ s⁻¹.

For the molecule B10, binding was put at a Kd of 0.0195 nM, the off-rate constant (koff) turned out to be 0.00039 s⁻¹ and the kon was 2e+07 M⁻¹ s⁻¹.

Take B11: the Kd was determined as 0.00931 nM, the koff was determined as 0.000222 s⁻¹ and the kon was determined as 2.38e+07 M⁻¹ s⁻¹.

As for B12, the Kd stood at 0.051 nM, the koff came out at 0.00085 s⁻¹ and the kon turned out to be 1.66e+07 M⁻¹ s⁻¹.

Molecule B13 yielded a dissociation constant (Kd) of 0.0318 nM, an off-rate constant (koff) of 0.000329 s⁻¹ and an association rate constant (kon) of 1.04e+07 M⁻¹ s⁻¹.

In the case of B14, the Kd is 0.105 nM and 0.0979 nM and 0.135 nM; the koff is 0.0012 s⁻¹ and 0.00148 s⁻¹ and 0.00117 s⁻¹; the on-rate (kon) is 1.14e+07 M⁻¹ s⁻¹ and 1.51e+07 M⁻¹ s⁻¹ and 8.69e+06 M⁻¹ s⁻¹.

The molecule B16 had a Kd of 0.0288 nM, a koff of 0.000224 s⁻¹ and a kon of 7.79e+06 M⁻¹ s⁻¹.

B17 came in with a Kd of 0.0258 nM, a koff of 0.000365 s⁻¹ and a kon of 1.41e+07 M⁻¹ s⁻¹.

B19 had an equilibrium dissociation constant (Kd) of 0.0212 nM, a koff of 0.000278 s⁻¹ and an on-rate (kon) of 1.31e+07 M⁻¹ s⁻¹.

In turn, B20 had a Kd of 0.0227 nM, a koff of 0.000293 s⁻¹ and a kon of 1.29e+07 M⁻¹ s⁻¹.

Consider B21, for which the affinity, expressed as Kd, was 0.0411 nM; the off-rate constant (koff) amounted to 0.000373 s⁻¹; the on-rate constant (kon) was found to be 9.08e+06 M⁻¹ s⁻¹.

Take B22: the affinity, expressed as Kd, was 0.0217 nM; the off-rate (koff) worked out at 0.000279 s⁻¹; the kon was 1.29e+07 M⁻¹ s⁻¹.

As to B23, binding was characterised by a dissociation constant (Kd) of 0.0276 nM, the dissociation rate constant (koff) turned out to be 0.000256 s⁻¹ and the kon is 9.26e+06 M⁻¹ s⁻¹.

Turning to B25, the affinity, expressed as Kd, was 0.011 nM; the dissociation rate constant (koff) is 0.000155 s⁻¹; the on-rate constant (kon) was 1.41e+07 M⁻¹ s⁻¹.
